Laboratory results: patent US20190022241A1 (AbbVie / Abbott, published 2019)

T1: extracellular domain of cynomolgus SEZ6 on yeast (cynomolgus, UniProt Q53EL9 23-925 (human entry))
T1 construct: yeast display; the whole entry is named; also called cSEZ6; cynomolgus SEZ6 ECD
T1 chain: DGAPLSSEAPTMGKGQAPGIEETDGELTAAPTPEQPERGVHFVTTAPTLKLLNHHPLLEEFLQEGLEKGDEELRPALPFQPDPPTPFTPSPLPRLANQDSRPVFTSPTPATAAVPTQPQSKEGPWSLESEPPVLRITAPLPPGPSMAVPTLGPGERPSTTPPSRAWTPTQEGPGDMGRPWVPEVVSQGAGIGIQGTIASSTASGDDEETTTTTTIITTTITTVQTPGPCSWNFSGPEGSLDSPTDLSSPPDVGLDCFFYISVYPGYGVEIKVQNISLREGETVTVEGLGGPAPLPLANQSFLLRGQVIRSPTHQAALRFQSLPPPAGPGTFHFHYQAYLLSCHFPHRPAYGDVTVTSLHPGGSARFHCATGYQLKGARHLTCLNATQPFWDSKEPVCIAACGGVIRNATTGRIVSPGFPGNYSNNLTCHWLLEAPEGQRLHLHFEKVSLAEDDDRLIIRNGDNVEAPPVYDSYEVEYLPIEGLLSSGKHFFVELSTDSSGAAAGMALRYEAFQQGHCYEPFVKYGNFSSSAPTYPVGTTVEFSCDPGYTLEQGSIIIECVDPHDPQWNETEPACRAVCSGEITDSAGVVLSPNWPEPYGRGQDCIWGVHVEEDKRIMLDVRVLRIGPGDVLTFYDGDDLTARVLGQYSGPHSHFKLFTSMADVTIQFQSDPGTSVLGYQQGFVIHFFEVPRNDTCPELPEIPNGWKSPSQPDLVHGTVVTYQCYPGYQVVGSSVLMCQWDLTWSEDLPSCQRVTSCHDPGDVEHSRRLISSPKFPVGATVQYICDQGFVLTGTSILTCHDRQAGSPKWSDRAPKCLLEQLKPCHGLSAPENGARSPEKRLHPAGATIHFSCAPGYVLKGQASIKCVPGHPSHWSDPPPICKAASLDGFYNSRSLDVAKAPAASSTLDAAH

T2: human SEZ6L ECD-His (human, UniProt Q9BYH1 29-955)
T2 construct: whole entry named
T2 sequence: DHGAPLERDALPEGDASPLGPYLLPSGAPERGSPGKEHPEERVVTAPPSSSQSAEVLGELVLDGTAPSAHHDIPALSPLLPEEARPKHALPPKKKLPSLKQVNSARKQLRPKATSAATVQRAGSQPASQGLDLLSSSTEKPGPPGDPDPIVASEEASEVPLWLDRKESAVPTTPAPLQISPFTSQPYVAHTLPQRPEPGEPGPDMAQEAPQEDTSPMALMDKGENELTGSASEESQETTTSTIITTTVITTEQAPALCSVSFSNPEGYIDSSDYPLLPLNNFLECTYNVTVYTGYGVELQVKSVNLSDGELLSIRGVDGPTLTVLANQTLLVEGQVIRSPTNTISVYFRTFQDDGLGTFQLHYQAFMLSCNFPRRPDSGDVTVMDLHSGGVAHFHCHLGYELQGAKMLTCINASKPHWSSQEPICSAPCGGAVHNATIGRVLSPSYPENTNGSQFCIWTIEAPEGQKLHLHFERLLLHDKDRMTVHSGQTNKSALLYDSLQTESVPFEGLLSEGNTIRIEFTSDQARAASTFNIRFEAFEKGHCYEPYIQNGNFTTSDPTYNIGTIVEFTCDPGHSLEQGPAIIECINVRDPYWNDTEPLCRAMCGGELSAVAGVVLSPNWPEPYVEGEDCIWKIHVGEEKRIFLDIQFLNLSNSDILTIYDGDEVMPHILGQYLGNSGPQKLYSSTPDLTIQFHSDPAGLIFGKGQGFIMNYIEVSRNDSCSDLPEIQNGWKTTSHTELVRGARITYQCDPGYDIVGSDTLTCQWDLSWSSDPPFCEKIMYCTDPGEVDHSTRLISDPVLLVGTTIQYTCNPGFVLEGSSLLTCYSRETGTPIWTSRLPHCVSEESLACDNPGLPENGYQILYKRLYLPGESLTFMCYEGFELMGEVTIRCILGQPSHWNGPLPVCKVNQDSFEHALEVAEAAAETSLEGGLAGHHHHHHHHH


How the values were obtained:
human SEZ6L2 ECD-His = biological target: T3, human SEZ6L2 ECD-His (human, UniProt Q6UXD5 28-843); experiment: ELISA on plates coated with SEZ6L2 protein
T3 construct: whole entry named
T3 sequence (Q6UXD5 other isoform, or with tags, fused parts or gaps): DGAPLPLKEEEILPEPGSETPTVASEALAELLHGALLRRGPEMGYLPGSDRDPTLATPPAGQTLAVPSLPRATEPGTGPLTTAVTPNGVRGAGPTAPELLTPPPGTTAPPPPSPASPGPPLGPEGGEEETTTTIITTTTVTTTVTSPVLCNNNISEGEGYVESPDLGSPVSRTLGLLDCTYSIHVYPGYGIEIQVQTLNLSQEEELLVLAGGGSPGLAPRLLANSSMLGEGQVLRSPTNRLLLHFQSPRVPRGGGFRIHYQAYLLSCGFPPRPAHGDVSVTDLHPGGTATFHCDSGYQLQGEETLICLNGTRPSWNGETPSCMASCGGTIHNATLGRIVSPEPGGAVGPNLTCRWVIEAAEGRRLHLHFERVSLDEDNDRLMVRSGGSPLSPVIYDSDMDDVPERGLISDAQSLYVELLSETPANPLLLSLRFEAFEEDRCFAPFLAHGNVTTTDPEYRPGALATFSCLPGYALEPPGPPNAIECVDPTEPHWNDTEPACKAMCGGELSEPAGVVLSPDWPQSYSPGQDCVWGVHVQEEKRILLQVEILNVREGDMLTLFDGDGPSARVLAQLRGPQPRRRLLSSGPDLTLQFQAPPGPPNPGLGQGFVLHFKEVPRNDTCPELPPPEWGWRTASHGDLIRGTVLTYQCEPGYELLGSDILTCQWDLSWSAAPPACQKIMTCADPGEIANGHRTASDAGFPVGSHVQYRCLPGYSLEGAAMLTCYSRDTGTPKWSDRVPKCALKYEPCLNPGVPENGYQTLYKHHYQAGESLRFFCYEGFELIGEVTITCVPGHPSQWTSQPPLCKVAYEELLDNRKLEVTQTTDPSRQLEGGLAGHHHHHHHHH
Method: To determine cross reactivity to family member proteins, SEZ6L and SEZ6L2, an ELISA-based assay was used. Plates were coated with SEZ6, SEZ6L, or SEZ6L2 proteins at 0.2 μg/mL in PBS overnight. After washing with PBS containing 0.05% (v/v) Tween 20 (PB ST), the wells were blocked with 2% (w/v) BSA in PBS (PB SA), 100 μL/well for 1 hour at room temperature. Antibody was then added at 1 μg/mL in 100 μL PBSA for 1 hour at room temperature. After washing with PBST, 100 μL/well HRP-labeled goat anti-mouse IgG diluted 1:2,000 in PBSA for 1 hour at room temperature. […] After developing, an equal volume of 2M H₂SO₄ was added to stop substrate development and analyzed by spectrophotometer at OD 450.

[1] = biological target: T4, mouse SEZ6 on Neuro2a cells (mouse, UniProt Q7TSK2 20-991); experiment: flow cytometry on Neuro2a cells expressing mouse SEZ6
T4 construct: endogenous on Neuro2a cells; also called murine SEZ6; mSEZ6
T4 sequence (Q7TSK2 20-991): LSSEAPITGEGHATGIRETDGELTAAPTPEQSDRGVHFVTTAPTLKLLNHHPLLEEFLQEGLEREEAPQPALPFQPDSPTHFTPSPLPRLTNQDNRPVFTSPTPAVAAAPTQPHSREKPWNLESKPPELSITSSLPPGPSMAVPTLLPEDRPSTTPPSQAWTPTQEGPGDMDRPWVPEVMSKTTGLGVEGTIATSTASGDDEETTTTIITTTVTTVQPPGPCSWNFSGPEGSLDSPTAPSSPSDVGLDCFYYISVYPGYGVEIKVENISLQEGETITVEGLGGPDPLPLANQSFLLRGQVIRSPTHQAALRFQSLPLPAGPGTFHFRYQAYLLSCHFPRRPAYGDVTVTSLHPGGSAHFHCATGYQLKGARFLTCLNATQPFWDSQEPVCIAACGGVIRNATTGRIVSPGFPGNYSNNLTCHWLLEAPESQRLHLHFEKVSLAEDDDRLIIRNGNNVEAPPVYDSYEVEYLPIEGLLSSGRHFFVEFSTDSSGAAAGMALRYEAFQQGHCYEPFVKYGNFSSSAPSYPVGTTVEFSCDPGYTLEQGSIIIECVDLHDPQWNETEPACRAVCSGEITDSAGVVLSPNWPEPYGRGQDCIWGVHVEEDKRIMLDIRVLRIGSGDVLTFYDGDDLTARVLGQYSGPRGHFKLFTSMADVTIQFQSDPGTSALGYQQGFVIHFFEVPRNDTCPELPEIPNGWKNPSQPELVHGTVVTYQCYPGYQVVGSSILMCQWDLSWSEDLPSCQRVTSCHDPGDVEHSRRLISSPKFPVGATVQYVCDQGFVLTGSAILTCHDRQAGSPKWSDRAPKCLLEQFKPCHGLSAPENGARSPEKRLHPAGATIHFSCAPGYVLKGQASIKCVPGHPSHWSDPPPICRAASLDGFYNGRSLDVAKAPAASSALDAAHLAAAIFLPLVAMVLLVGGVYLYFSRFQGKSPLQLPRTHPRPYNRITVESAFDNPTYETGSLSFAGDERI
Method: (§1) Briefly 1×10⁵ cells per well of Neuro2a, RIN-5mF, or yeast displaying cynomolgus SEZ6 cells were incubated for 30 minutes with 50 μL PBS (2% FCS) buffer with 5 μg/mL antibody. […] After incubating for 15 minutes cells were washed twice with the PBS buffer and re-suspended in the same with DAPI for flow cytometry analysis of Neuro2a and Rin-m5F or buffer without DAPI for flow cytometric analysis of yeast cells with cSEZ6.

[2] = biological target: T1, extracellular domain of cynomolgus SEZ6 …; experiment: flow cytometry, yeast displaying cynomolgus SEZ6 ECD, 5 ug/mL antibody
Method: as §1

human SEZ6L ECD-His = biological target: T2, human SEZ6L ECD-His; experiment: ELISA on plates coated with SEZ6L protein

Row | Binder | binding result (human SEZ6L2 ECD-His) | binding result [1] | binding result [2] | binding result (human SEZ6L ECD-His)
1 | SC17.34 (antibody, V domains shown, murine mAb) VH: EVQLQQSGPELVKPGSSVKISCKASGYTFTDYNMDWVKQSHGKRLEWIGYIYPDNGGAGYNQKFKGKATLTVDKSSSTAYMELRSLTSEDSAVYYCSRSITTAWFAYWGQGTLVTVSA VL: DIKMTQSPSSMYASLGERVTITCKASQDINSYLSWFQQKPGKSPKTLIYRANRLVDGVPSRFSGSGSGQDYSLTISSLEYEDMGIYYCLQYDEFPPTFGGGTKLEIK | no binding (tested: 1 µg/mL) | no binding (tested: 5 µg/mL) | binds | no binding (tested: 1 µg/mL)
2 | SC17.17 (antibody, V domains shown, murine mAb) VH: EVQLQQSGPEVMKPGASVKMSCKASGYTFTDYNMHWVKQNQGKSLEWIGEINPNIGGTGYNQKFKGKATLTVHKSSSTAYMELRSLTSEDSAVYYCARTYSYYSYEFAYWGQGTLVTVSA VL: QIVLTQSPAIMSASPGEKVTMTCSASSSVSYMHWYQQKSGTSPKRWIYDTSKLPSGVPARFSGSGSGTSYSLTISSMEAEDAATYYCQQWSSTPPTFGAGTKLELK | no binding (tested: 1 µg/mL) | no binding (tested: 5 µg/mL) | binds | no binding (tested: 1 µg/mL)
